Tests used:
[1] = tested on: glutathione reductase (GR); assay: stopped-flow, NAD; type: biochemical; conditions: read-out: apparent KM; 180 µM NAD(P)H, 10 nM enzyme, 50 to 250 µM HOSCN, 100 mM sodium phosphate pH 7.4, aerobic
[2] = substrate: O=S(=O)(O)CCNCl; assay: purified protein; conditions: 100 µM NADH, 10 µM enzyme, 20 mM HEPES, 100 mM NaCl pH 7, anaerobic

Molecule | Km [1] [µM] | Km [2] [µM] | kcat [2] [s⁻¹]
N#CSO [HOSCN, hypothiocyanous acid] | 81 |  | 
RclA (Escherichia coli K-12) (protein) MNKYQAVIIGFGKAGKTLAVTLAKAGWRVALIEQSNAMYGGTCINIGCIPTKTLVHDAQQHTDFVRAIQRKNEVVNFLRNKNFHNLADMPNIDVIDGQAEFINNHSLRVHRPEGNLEIHGEKIFINTGAQTVVPPIPGITTTPGVYDSTGLLNLKELPGHLGILGGGYIGVEFASMFANFGSKVTILEAASLFLPREDRDIADNIATILRDQGVDIILNAHVERISHHENQVQVHSEHAQLAVDALLIASGRQPATASLHPENAGIAVNERGAIVVDKRLHTTADNIWAMGDVTGGLQFTYISLDDYRIVRDELLGEGKRSTDDRKNVPYSVFMTPPLSRVGMTEEQARESGADIQVVTLPVAAIPRARVMNDTRGVLKAIVDNKTQRMLGASLLCVDSHEMINIVKMVMDAGLPYSILRDQIFTHPSMSESLNDLFSLVK |  | 12700 | 33

Source: publication PMC9335216 (Proceedings of the National Academy of Sciences of the …, 2022)
